What was measured:
[1] = target: T1, prostate-specific membrane antigen (PSMA), on cells (3T3-PSMA, C4-2, LNCaP) (Homo sapiens (Human), UniProt Q04609 1-750); test: cell-based or functional assay
[2] = target: T1, prostate-specific membrane antigen …; test: cell-based or functional assay; remark: listed apart in the source

T1 sequence (Q04609 whole entry): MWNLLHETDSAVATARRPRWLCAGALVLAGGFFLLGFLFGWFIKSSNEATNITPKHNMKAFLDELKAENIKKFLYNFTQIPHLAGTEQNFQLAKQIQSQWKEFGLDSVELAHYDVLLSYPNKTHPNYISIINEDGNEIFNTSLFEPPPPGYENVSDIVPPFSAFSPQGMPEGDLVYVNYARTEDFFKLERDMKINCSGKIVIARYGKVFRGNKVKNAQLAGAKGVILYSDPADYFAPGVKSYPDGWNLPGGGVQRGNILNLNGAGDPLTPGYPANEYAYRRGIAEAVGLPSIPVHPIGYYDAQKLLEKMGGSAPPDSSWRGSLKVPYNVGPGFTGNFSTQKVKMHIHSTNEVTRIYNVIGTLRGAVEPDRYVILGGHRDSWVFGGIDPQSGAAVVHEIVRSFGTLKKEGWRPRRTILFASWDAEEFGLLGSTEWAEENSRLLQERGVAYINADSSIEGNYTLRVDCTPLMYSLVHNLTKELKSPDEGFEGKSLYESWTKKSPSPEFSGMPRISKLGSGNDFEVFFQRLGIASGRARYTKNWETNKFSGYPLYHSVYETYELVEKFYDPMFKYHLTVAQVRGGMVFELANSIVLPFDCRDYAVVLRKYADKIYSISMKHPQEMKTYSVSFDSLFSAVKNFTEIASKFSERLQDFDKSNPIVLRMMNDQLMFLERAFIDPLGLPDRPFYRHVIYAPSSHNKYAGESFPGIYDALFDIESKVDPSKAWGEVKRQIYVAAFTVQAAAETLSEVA

B1: PSMA ADC (AB-PG1-XG1-006 conjugated to maleimidocaproyl-valine-citrulline-p-aminobenzylcarbamate-monomethyl auristatin E), Example 1 (antibody, V domains shown)
VH: QVQLVESGGGVVQPGRSLRLSCAASGFAFSRYGMHWVRQAPGKGLEWVAVIWYDGSNKYYADSVKGRFTISRDNSKNTQYLQMNSLRAEDTAVYYCARGGDFLYYYYYGMDVWGQGTTVTVSS
VL: DIQMTQSPSSLSASVGDRVTITCRASQGISNYLAWYQQKTGKVPKFLIYEASTLQSGVPSRFSGGGSGTDFTLTISSLQPEDVATYYCQNYNSAPFTFGPGTKVDIK
modifications: vcMMAE on cysteine thiols of reduced disulfides; 3.0-3.5 drugs per mAb in total
in vitro cytotoxicity IC50 on 3T3-PSMA cells (Alamar Blue, 4 days) [1]: 0.208 nM
in vitro cytotoxicity IC50 on C4-2 cells (Alamar Blue, 4 days) [1]: 0.065 nM
in vitro cytotoxicity IC50 on LNCaP cells (Alamar Blue, 4 days) [1]: 0.083 nM

B2: PSMA mAb vcMMAF (conjugate 699028B), Example 2 (antibody, V domains shown)
VH: B1 VH
VL: B1 VL
modifications: vcMMAF via thioether on interchain cysteine thiols; 4.4 drugs per mAb in total
in vitro potency IC50 on C4-2 cells (Alamar Blue, 4 days) [2]: 0.011 nM

B3: PSMA mAb mcMMAF (conjugate 699028C), Example 2 (antibody, V domains shown)
VH: B1 VH
VL: B1 VL
modifications: mcMMAF via thioether on interchain cysteine thiols; 4.4 drugs per mAb in total
in vitro potency IC50 on C4-2 cells (Alamar Blue, 4 days) [2]: 0.042 nM

B4: PSMA mAb vcMMAE (conjugate 699028A), Example 2 (antibody, V domains shown)
VH: B1 VH
VL: B1 VL
modifications: vcMMAE via thioether on interchain cysteine thiols; 4.3 drugs per mAb in total
in vitro potency IC50 on C4-2 cells (Alamar Blue, 4 days) [2]: 0.06 nM

From patent US20210023094A1 (PSMA DEVELOPMENT, published 2021)
